Laboratory results: PMC12081870 (Communications Biology, 2025)

Experiments:
G-actin [1] = experiment: MST, Las17 300-422 P387A / P388A to labelled G-actin; format: binding, rabbit; details: three repeats, not statistically significant
Excerpt: (§1) A Purified individual GST-tagged Sla1 SH3 domains were used to probe a Celluspot array consisting of a series of 12 amino acid peptides starting with residue 181, and subsequent peptides starting at two amino acid intervals, up to amino acid 540. Binding of GST-Sla1 SH3 to the array was identified by further probing of HRP-tagged anti-GST and subsequent visualisation using chemiluminescence. […] Error bars are standard error of mean.
The small reduction was not found to be statistically significant over three repeats.
(§2) Microscale Thermophoresis (MST) assays were performed as described previously. Briefly, rabbit muscle actin in G-buffer minus DTT was […] using Monolith NT^TM Protein Labelling Kit RED-Malemide (NanoTemper Technologies, Munich, Germany). […] Each reaction was then loaded into Monolith NT.115 Premium Treated Capillaries (NanoTemper Technologies) and thermophoresis was measured in a Monolith NT.115 Microscale Thermophoresis device (NanoTemper Technologies). Thermophoresis was measured at 20% red LED power and 40% IR laser power at 22°C. Fnorm was calculated from the ratio of fluorescence before heating and after the new equilibrium had been reached. […] Each experiment was carried out three separate times with protein from different protein preparations and mean ± SE shown except for Fig. 7a where mean ± SD is shown.

[2] = test system: Las17 and las17 P387A expressing yeast strains; experiment: Latrunculin-A halo assay on yeast; format: cell-based, Saccharomyces cerevisiae; details: 10 µl latrunculin-A disc, halo assay, 5 repeats
Method: Supplementary Information.
Methods used in Supplementary Data
Yeast strains, growth and staining
Yeast plasmids used in this study are listed in Supplementary table 1 and yeast strains used in Supplementary table 2. Unless stated otherwise, cells were grown with rotary shaking at 30°C in liquid YPD medium (1% yeast extract, 2% Bacto-peptone, 2% glucose supplemented with 40 μg/ml adenine) or in synthetic medium (0.67% yeast nitrogen base, 2% glucose) with appropriate supplements. Growth assays used solid medium with 2% agar added to above. All strains carrying fluorescent tags have growth properties similar to isogenic control strains with the exception of strains carrying dual reporters where lifetimes were longer for both wild type and mutant strains (in Figure 9D). Point mutations in LAS17 were generated using site directed mutagenesis (Agilent). DNA cassettes carrying mutations for integration were transformed into KAY1801. Mutant colonies were counter-selected on minimal medium, containing 0.005% uracil and 0.1% 5’-Fluoroorotic Acid (5-FOA; Melford labs). […]
expressing strains on plates on which a disc carrying 10 µl of latrunculin-A of varying concentrations was placed (white disc). […] They were then scored according to the extent of uptake and categorised according to the key shown. >100 cells were visualised for each strain in each of 3 independent experiments. […]

actin = experiment: Pyrene actin assay, actin polymerisation in the absence of Arp2/3; format: biochemical, rabbit; details: no Arp2/3, 300 nM fragment, 3 µM actin
Method: 300 nM each fragment; 3 µM actin. […] Error bars are standard error of mean.
Rabbit skeletal muscle actin was gel filtered as described. Concentrations of G-actin produced and used in experiments were in the range 35–65 µM.
(§3) Fluorometry assays were performed as described previously. 370 μl assays used 3 μM actin as indicated unless otherwise specified. Pyrene-actin was added to 5%, mixed thoroughly, and added to the fluorometry cuvette. Polymerization salts, 10× KME (500 mM KCl, 10 mM MgCl2, 10 mM EGTA, 100 mM Tris-HCl [pH 8.0]) were mixed with fragments or G buffer to give final concentration of 0.5× KME before reading fluorescence. […] Experiments were carried out three separate times with different protein preparations and a representative graph shown.

[3] = target: Las17 PPR-N fragment (residues 300-422), wild type (S. cerevisiae) (UniProt Q12446); experiment: BLI; Octet R2 (Sartorius); Octet NTA Biosensors or Octet GST Biosensors, which partner was loaded is not stated; repeated three times; the constant of SH3#1-3 is called apparent
[4] = test system: Las17-Arp2/3 mediated actin polymerisation; details: 15 nM Las17, 1 µM Sla1 SH3 domains, ref [13]; cited from earlier work
Excerpt: In Sla1 the first two SH3 domains are immediately juxtaposed with no linker. There are then 236 residues before the third SH3 domain (Fig. 1A).

[5] = test system: Las17 12mer peptides / GST-Sla1 SH3 domains; experiment: Peptide spot array (Celluspot) of Las17 12mers probed with GST-Sla1 SH3 domains; format: binding, Saccharomyces cerevisiae; details: GST-Sla1 SH3 domain on 12mer array, 2-residue offset, anti-GST HRP, chemiluminescence
Method: as §1
They were incubated with GST fused SH3 domains of Sla1 or with GST alone, as described in ref.[57]. Membranes were probed with HRP tagged anti-GST, and the presence of SH3-GST fusion protein was detected with ECL chemiluminescent detection solution (Thermo Fisher Scientific).

[6] = test system: Las17 PPR-N fragment (residues 300-422); experiment: Biolayer Interferometry (BLI), Sla1 SH3 domains to Las17 PPR-N; format: binding, Saccharomyces cerevisiae; details: Biolayer Interferometry
Excerpt: (§4) To investigate binding characteristics of the SH3 domains further, Sla1 SH3 protein domains were purified. Three Sla1 SH3 single domains, tandem domains Sla1 SH3#1&2, Sla1 SH3#1&2 W108A (in which the W108A mutation prevents proline motif binding by SH3#2 but not SH3#1) and a fragment with all three SH3 domains were expressed recombinantly and purified. […] This outcome is in line with original research of Rodal and colleagues and with more recent studies of avidity developed by Williamson, which highlighted the importance of tandem binding SH3 domains[13],[27].
Biolayer Interferometry (BLI) assays were performed using an OctetⓇ R2 (Sartorius). Protein samples were placed into the wells of a polystyrene plate (ProxiPlateTM, Perkin Elmer) and binding measured either with Octet NTA Biosensors or Octet GST Biosensors. Screening assays were performed to determine the optimum loading concentration and time for each binding pair to ensure that the probe was not saturated. All experiments were repeated three times, each time with newly prepared protein. Analysis and visualisation were performed using GraphPad Prism 10.0.2.

Las17 = experiment: Microscale thermophoresis, Sla1 SH3#2 to Las17; format: binding, Saccharomyces cerevisiae; details: could not be saturated within the concentration range
Excerpt: as §4, §2

G-actin [7] = experiment: MST, Las17 300-422 to labelled G-actin in presence or absence of Sla1 SH3#1-3 (competition); format: binding, rabbit; details: Sla1 SH3#1-3 4.5 µM, actin 50 nM, Las17(300–422) 0.29-9.5 µM
Method: The experiment was then repeated with the addition of Sla1 SH3#1-3 fragment at 4.5 µM.
Error bars are standard deviation.
Microscale Thermophoresis (MST) assays were performed as described previously[15]. Briefly, rabbit muscle actin in G-buffer minus DTT was lysine labelled using Monolith NT^TM Protein Labelling Kit RED-Malemide (NanoTemper Technologies, Munich, Germany). […] Each reaction was then loaded into Monolith NT.115 Premium Treated Capillaries (NanoTemper Technologies) and thermophoresis was measured in a Monolith NT.115 Microscale Thermophoresis device (NanoTemper Technologies). Thermophoresis was measured at 20% red LED power and 40% IR laser power at 22°C. Fnorm was calculated from the ratio of fluorescence before heating and after the new equilibrium had been reached.

[8] = test system: Las17-Arp2/3 mediated actin polymerisation; experiment: Pyrene actin assay, inhibition of Las17-Arp2/3 mediated actin polymerisation by Sla1 SH3 domains; format: biochemical; details: Actin 3 µM, Las17 300 nM, Sla1 SH3 domains 300 nM each (1:1), with Arp2/3
Method: SH3 domains of Sla1 are numbered #1, #2 and #3. […] PP in pink boxes indicate poly-proline tracts in this region. Other regions of Las17 are included but not to scale. B Representative pyrene actin assays show inhibition of Las17-Arp2/3 mediated actin polymerisation by Sla1-SH3 domains when added as separate domains (orange #1, green #2 or cyan #3) or on a single peptide (red). […] Sla1 SH3#1 (aa 3-68), SH3#3 (aa 354-413), SH3#1-2 (aa 5-131), SH3#1-3 (aa 5-413).
as §3

Las17 (300–422) P387A: Las17 (300–422) with P387A mutation
effect on actin binding (G-actin [1]): little change in actin binding

C/C1=C/C(=O)O[C@@H]2C[C@@H](CC[C@H](C)/C=C\C=C\CC1)O[C@@](O)([C@@H]1CSC(=O)N1)C2 [latrunculin-A, reference compound]
increase in Lat-A sensitivity of las17 P387A compared to wild type [2]: 7 fold

Las17(300–633): Las17 fragment containing both PPR and VCA
stimulation of Arp2/3-independent actin polymerisation (actin): able to stimulate actin polymerisation in the absence of Arp2/3

Las17(342–392): minimal Las17 fragment with two arginine-pair actin sites, left on GST tag
stimulation of Arp2/3-independent actin polymerisation (actin): unable to stimulate Arp2/3-independent actin polymerisation

Las17 (300–422) P388A: Las17 (300–422) with P388A mutation
effect on actin binding (G-actin [1]): little change in actin binding

Sla1 SH3#1&2 W108A (domain or fragment)
Kd [3]: 7.4 µM

B1: Sla1 SH3#2: second SH3 domain of Sla1, GST-Sla1 SH3#2 in pGEX4T1 (protein)
chain: PVLKKVRAIYDYEQVQNADEELTFHENDVFDVFDDKDADWLLVKSTVSNEFGFIPGNYVEPENG
modifications: left off: GST, end not stated, cleaved
notes: second SH3 domain of Sla1, GST-Sla1 SH3#2 in pGEX4T1
inhibition of actin polymerisation activity [4]: about 80% | binding to Las17 peptide spots [5]: only showed weak binding to spots | binding ([6]; result in words): showed no binding | binding (Las17): weak binding was detected

B2: Sla1 SH3#1-3: SH3#1-3 (aa 5-413), fragment with all three SH3 domains (protein)
chain: LGIYRAVYAYEPQTPEELAIQEDDLLYLLQKSDIDDWWTVKKRVIGSDSEEPVGLVPSTYIEEAPVLKKVRAIYDYEQVQNADEELTFHENDVFDVFDDKDADWLLVKSTVSNEFGFIPGNYVEPENGSTSKQEQAPAAAEAPAATPAAAPASAAVLPTNFLPPPQHNDRARMMQSKEDQAPDEDEEGPPPAMPARPTATTETTDATAAAVRSRTRLSYSDNDNDDEEDDYYYNSNSNNVGNHEYNTEYHSWNVTEIEGRKKKKAKLSIGNNKINFIPQKGTPHEWSIDKLVSYDNEKKHMFLEFVDPYRSLELHTGNTTTCEEIMNIIGEYKGASRDPGLREVEMASKSKKRGIVQYDFMAESQDELTIKSGDKVYILDDKKSKDWWMCQLVDSGKSGLVPAQFIEPV
modifications: left off: GST, end not stated, cleaved
notes: SH3#1-3 (aa 5-413), fragment with all three SH3 domains
fold change in apparent Kd of actin for Las17 (G-actin [7]): 40 fold | fold change in apparent Kd of actin for Las17 (G-actin [7]; listed as Sla1): 40.6 fold | inhibition of actin polymerisation activity [4]: about 85% | Kd ([6]; Octet R2, Las17 (aa 300-422), three repeats with newly prepared protein, read-out: binding affinity (Kd)): 0.039 µM | inhibition of Las17-Arp2/3 mediated actin polymerisation [8]: substantial inhibition of actin polymerisation
